Article PMC9954413

How the values were obtained:
UbcH5B (Homo sapiens) = UbcH5B (Homo sapiens) (UniProt P62837); assay: ITC; settings: cited from earlier work
[1] = target: Arkadia (RNF111) LONG, residues 876-994 (Ark LONG, 119 aa) (human) (UniProt Q6ZNA4)
[2] = target: Arkadia LONG R983A (human) (UniProt Q6ZNA4); assay: ITC; 1-3 mM E2 in the syringe injected (2 uL, 15-19 injections) into 100-300 uM Arkadia polypeptide in the cell; 25 °C; 50 mM KH2PO4, 50 mM K2HPO4 pH 7; single-site model
[3] = target: Arkadia LONG R983K (human) (UniProt Q6ZNA4); assay: as above
Arkadia LONG R983K (human), sequence (Q6ZNA4 876-994 R983K): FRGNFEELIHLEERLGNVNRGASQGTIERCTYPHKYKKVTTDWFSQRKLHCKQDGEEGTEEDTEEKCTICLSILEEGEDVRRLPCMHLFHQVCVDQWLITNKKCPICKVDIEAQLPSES

[4] = target: Arkadia (RNF111) LONG, residues 876-994 (Ark LONG, 119 aa) (human) (UniProt Q6ZNA4); assay: as above

UbcH5B (UBE2D2), sequence (P62837 whole entry): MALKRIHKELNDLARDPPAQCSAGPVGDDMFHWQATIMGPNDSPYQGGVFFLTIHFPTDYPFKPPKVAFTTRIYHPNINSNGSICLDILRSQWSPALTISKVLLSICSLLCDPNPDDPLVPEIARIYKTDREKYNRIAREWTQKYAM
Arkadia (RNF111) LONG, residues 876-994 (Ark LONG, 119 aa) (human), sequence (Q6ZNA4 876-994): as the sequence (Q6ZNA4 876-994 R983K) above, with K108R counted along it
Arkadia LONG R983A (human), sequence (Q6ZNA4 876-994 R983A): as the sequence (Q6ZNA4 876-994 R983K) above, with K108A counted along it
UbcH5B (Homo sapiens), sequence (P62837 whole entry, the tested form may be a part): as the sequence (P62837 whole entry) above
Arkadia RING RING, sequence (Q6ZNA4 939-986): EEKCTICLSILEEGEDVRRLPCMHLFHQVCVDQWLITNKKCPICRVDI

| Substance | Kd (UbcH5B (Homo sapiens)) | in vitro auto-ubiquitylation of Ark LONG: time until polyubiquitylation is achieved [1] | dH [2] | stoichiometry N [2] | dH [3] | stoichiometry N [3] | dH [4] | stoichiometry N [4] |
| --- | --- | --- | --- | --- | --- | --- | --- | --- |
| Arkadia RING RING (from UniProt Q6ZNA4) | 32 µM | – | – | – | – | – | – | – |
| UbcH5B (UBE2D2) (from UniProt P62837 1-147) (enzyme) | – | 5 min | -5.8 kcal/mol | 0.7 | -3.6 kcal/mol | 0.5 | -4.7 kcal/mol | 0.6 |
